Target: 人HER3胞外区蛋白 (human HER3 extracellular region protein) (human) (UniProt P21860)
Experiment: ELISA; human HER3 extracellular region coated at 2 μg/mL, scFv at 2 μg/mL, detected with HRP anti-6×His Tag antibody, TMB, triplicate wells (mean ± deviation)

吸光度(A450)均值: 0.961 A450
B1: 抗HER3单链抗体 (anti-HER3-scFv) (scFv)
scFv: QVQLVESGGGLVQPGGSLRLSCAASGFTFSSYAMSWVRQAPGKGLEWVSAINSQGKSTYYADSVKGRFTISRDNSKNTLYLQMNSLRAEDTAVYYCARWGDEGFDIWGQGTLVTVSSGGGGSGGGGSGGGGSDIQMTQSPSSLSASVGDRVTITCRASQGISNWLAWYQQKPGKAPKLLIYGASSLQSGVPSRFSGSGSGTDFTLTISSLQPEDFAVYYCQQYSSFPTTFGQGTKVEIK

— patent publication CN110760003A
